Residue numbers refer to the chain shown, from its start.
Legend:
[1] = tested on: T1, H-NS A2 S2A (Shewanella oneidensis MR-1), ORF:b65510ad; test: EMSA
T1 sequence: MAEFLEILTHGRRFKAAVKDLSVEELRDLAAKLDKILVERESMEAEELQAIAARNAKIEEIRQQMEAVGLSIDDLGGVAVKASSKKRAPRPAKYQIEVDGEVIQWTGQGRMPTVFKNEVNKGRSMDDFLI

[2] = tested on: T2, H-NS A71 S71A (Shewanella oneidensis MR-1), ORF:b65510ad; test: EMSA
T2 sequence: T1 sequence with A2S, S71A

[3] = tested on: T3, H-NS A42 S42A (Shewanella oneidensis MR-1), ORF:b65510ad; test: EMSA
T3 sequence: T1 sequence with A2S, S42A

[4] = tested on: T1, H-NS A2 S2A (Shewanella oneidensis MR-1), ORF:b65510ad; test: analytical ultracentrifugation
[5] = tested on: T2, H-NS A71 S71A (Shewanella oneidensis MR-1), ORF:b65510ad; test: analytical ultracentrifugation
[6] = tested on: T3, H-NS A42 S42A (Shewanella oneidensis MR-1), ORF:b65510ad; test: analytical ultracentrifugation

Measured: binding

GATTTTCTAGTGACAGAAGGTTTTAGCGTTGATAATGCCAAATATGCTGAATTATTTTTGAGACCGAGTAAATTTCTTAGGGGACCAAAAAAACGCATATAATACAATGGATAATGCAATTTAGGTGAGCAAAGGGGACCGTTTTTACCCCGTTTATTCATGCTTCATAACCATCTAATCTCAGGGTTGTAGACGTTTATTCACAACTCTGAGGACGATTATGAACACAACTCTCAC (double strand) [alpA promoter (PalpA)]
binds: [1] | [2] | [3] | [4] | [5] | [6]

Source: PMC8034616
